Where two headings read alike, the source gives them in different places.
Assays:
cross-linking = molecular target: the molecule itself; assay: cross-linking
[1] = molecular target: T1, HA-tagged PRL1 expressed in HEK293 cells, Q93096; assay: cross-linking; settings: remark: other sources report otherwise
T1 chain: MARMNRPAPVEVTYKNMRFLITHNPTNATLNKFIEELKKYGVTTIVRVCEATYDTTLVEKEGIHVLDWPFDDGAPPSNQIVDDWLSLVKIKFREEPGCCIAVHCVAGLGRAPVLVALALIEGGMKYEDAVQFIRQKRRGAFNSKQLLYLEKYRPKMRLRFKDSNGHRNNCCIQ

[2] = molecular target: the molecule itself

B1: PRL1 (phosphatase of regenerating liver 1), recombinant wild type (enzyme)
chain: MNRPAPVEVTYKNMRFLITHNPTNATLNKFIEELKKYGVTTIVRVCEATYDTTLVEKEGIHVLDWPFDDGAPPSNQIVDDWLSLVKIKFREEPGCCIAVHCVAGLGRAPVLVALALIEGGMKYEDAVQFIRQKRRGAFNSKQLLYLEKYRPKMRLRF
stoichiometry N (cross-linking): 3

B2: PRL1/Y14A, recombinant (enzyme)
chain: MNRPAPVEVTAKNMRFLITHNPTNATLNKFIEELKKYGVTTIVRVCEATYDTTLVEKEGIHVLDWPFDDGAPPSNQIVDDWLSLVKIKFREEPGCCIAVHCVAGLGRAPVLVALALIEGGMKYEDAVQFIRQKRRGAFNSKQLLYLEKYRPKMRLRF
stoichiometry N (cross-linking): 3

B3: PRL1/F132A, recombinant (enzyme)
chain: MNRPAPVEVTYKNMRFLITHNPTNATLNKFIEELKKYGVTTIVRVCEATYDTTLVEKEGIHVLDWPFDDGAPPSNQIVDDWLSLVKIKFREEPGCCIAVHCVAGLGRAPVLVALALIEGGMKYEDAVQAIRQKRRGAFNSKQLLYLEKYRPKMRLRF
stoichiometry N (cross-linking): 3

B4: HA-tagged PRL1 expressed in HEK293 cells, Q93096 1-173 (enzyme)
chain: MARMNRPAPVEVTYKNMRFLITHNPTNATLNKFIEELKKYGVTTIVRVCEATYDTTLVEKEGIHVLDWPFDDGAPPSNQIVDDWLSLVKIKFREEPGCCIAVHCVAGLGRAPVLVALALIEGGMKYEDAVQFIRQKRRGAFNSKQLLYLEKYRPKMRLRFKDSNGHRNNCCIQ
stoichiometry N [1]: 3

B5: PRL2 (enzyme, UniProt Q12974 1-167, looked up)
chain: MNRPAPVEISYENMRFLITHNPTNATLNKFTEELKKYGVTTLVRVCDATYDKAPVEKEGIHVLDWPFDDGAPPPNQIVDDWLNLLKTKFREEPGCCVAVHCVAGLGRAPVLVALALIECGMKYEDAVQFIRQKRRGAFNSKQLLYLEKYRPKMRLRFRDTNGHCCVQ
stoichiometry N [2]: 3

— PMC4987244 (Cancer research, 2016)
